These results are taken from publication PMC4046962.

In the experiment the target is SiaM (Streptomyces sp. A7248). The experiment in a line: small-angle X-ray scattering (SAXS); SiaM in 10 mM Na2HPO4, 1.8 mM KH2PO4, 400 mM Na2SO4, pH 8.3, 4°C; curves of monomer, two dimers and tetramer fitted with CRYSOL; mixture analysed with OLIGOMER

In the case of SiaM (enzyme), the stoichiometry N was found to be 4.
